Settings: Bacillus amyloliquefaciens; pH 6.3; 25 °C; Urea; Fluorescence; MES 450 mM; reversible: yes; whole UniProt chain shown

B1: Ribonuclease wild type, P00648 (protein)
chain: MMKMEGIALKKRLSWISVCLLVLVSAAGMLFSTAAKTETSSHKAHTEAQVINTFDGVADYLQTYHKLPDNYITKSEAQALGWVASKGNLADVAPGKSIGGDIFSNREGKLPGKSGRTWREADINYTSGFRNSDRILYSSDWLIYKTTDHYQTFTKIR
denaturant m value: 1.92 kcal/mol/M
denaturant midpoint (higher = more stable): 4.6 M
unfolding free energy: 8.83 kcal/mol

Reference: FireProtDB (doi:10.1016/0022-2836(92)90907-2)
